This note sets out measurements from patent US10799462B2, “Peptide-polypeptide co-assembled nanoparticles for drug delivery” (B. G. Negev Technologies and Applications Ltd., at …, priority 2014, dated 2020).

One series deals with Saos2 cells. Put plainly: XTT cell viability (cytotoxicity). It is filed as cell-based. Particulars: Homo sapiens, SAOS-2; Saos2 cultures; results not shown. The method, then:
The cytotoxicity of coated nanoparticles was assessed by monitoring the viability of Saos2 cells in presence of the NPs. All cell cultured were carried in air supplemented with 5% CO2 at 37° C. In 24 wells plate, 3*10^4 cells/well were seeded, in DMEM complete medium and cultured for 4 h. The cells were supplemented with different concentrations of LND-NPs, control NPs, or free LND and cultured overnight. Cells viability was determined by XTT assay following the manufacturer instructions (Life Technologies, California, USA). The XTT solution was added to the wells and cells were incubated for 4 hr after which the absorbance of the samples was measured at 490 nm, by a microplate-reader (BioTek instruments, Winoosky, Vt.). Cells viability is reported as percentage compared to untreated cultured cells.
On the technique in general: Tetrazolium dyes change colour on reduction, which living cells bring about.

Series [1] can be described thus: Zeta potential / surface charge by Zetasizer (Smoluchowski model). The series is classed as physicochemical. The following applies: for ξ zeta potential: n = 4. As for the experimental part: (§1) NPs diameter was measured by dynamic light scattering (DLS) (CGS-3 LSE-5003, ALV, Langen, Germany) at different angles of the detector (90, 60 and 30 degrees) and by Small angle X-ray scattering (SAXS) (SAXLAB's GANESHA 300 XL, Skovlunde, Denmark) Sealed Tube Generator: Cu-Ka 0.154 nm (Genix 3D) equipped with a 2D detector (Pilatus 300k). Surface charge was measured by Zetasizer (Zetasizer Nano ZS, Malvern, Worcestershire, UK) and subsequently the data was analyzed using the Smoluchowski model.

Series [2] in a line: Dynamic light scattering (DLS) particle radius. The following applies: for Rh* (most common radius measured at 90° using DLS): γ-PGA alone or peptide/γ-PGA NPs 1:1 w/w, n = 9; for Rh: n = 4. The series is classed as physicochemical. The method, then:
as §1

A short description of series [3]: Circular dichroism (CD) secondary structure. It is filed as physicochemical. The following applies: for change of CD pattern on mixing with γ-PGA: peptide:γ-PGA 0.25:0.25 mg/ml. The method, then:
CD measurements were performed to characterize secondary structure of peptides in the NPs solution. Spectra in the range of 190-260 nm were recorded at room temperature on CD spectropolarimeter (J-715, Jasco, Tokyo, Japan), using a 1-mm quartz cuvette.
Background: Circular dichroism is widely used to follow secondary structure.

Where [4] appears, read: γ-PGA alone or peptide/γ-PGA NPs 1:1 w/w, n = 9.
The mark [5] stands for this setting: γ-PGA/PFK NPs coated with the peptide, coating solution 0.1 mg/ml.
Setting [6] is: γ-PGA/PFK NPs coated with the peptide, coating solution 0.5 mg/ml.
Setting [7] is: NPs coated with PFK 0.1 mg/ml, single or repeated addition.
Where [8] appears, read: PFK alone or PFK/γ-PGA NPs at different PFK:γ-PGA weight ratios, n = 3.

One may read the IC50 as the concentration at which inhibition is half-maximal. `O=C(O)c1nn(Cc2ccc(Cl)cc2Cl)c2ccccc12` [free LND, Lonidamine] had a 50% inhibitory concentration (IC50) in the series with Saos2 cells of 1300 µM.
“KFFFKKFFKFFKK [rFK, scrambled order control of FK]” displayed a ζ zeta potential in series [1] (setting [4]) of −38.78 ± 3.92 mV. For the same molecule, in series [2], the “Rh* (most common radius measured at 90° using DLS)” value (“Rh*” below) was 6.45 ± 1.2 nm. Further, the “change of CD pattern on mixing with γ-PGA” value (“change of CD pattern” for short) in series [3] is “primarily the Phe-Phe side chain type of absorption”.
Taken in the same sequence, the figures for “FK(FK)5F (FKFKFKFKFKFKF) [free termini version of the amphiphilic peptide]” were −43.71 ± 9.2 mV, 7.41 ± 1.7 nm and “most pronounced shift to β-sheet structure”.
“KFFPKKPFKFFKK [rPFK, scrambled order control of PFK]”: in series [1] (setting [4]), the ζ zeta potential is listed as −25.26 ± 8.79 mV. In addition, the results for the ξ zeta potential in series [1] (setting [5]) and in series [1] (setting [6]) were −37.26 ± 7.03 mV and −36.0 ± 2.69 mV, respectively. Besides, the “Rh*” value in series [2] came out at 9.57 ± 6 nm. In addition, the Rh in series [2] (setting [5]) turned out to be 11.04 ± 7.77 nm; in series [2] (setting [6]), 9.72 ± 1.03 nm. In addition, the “change of CD pattern” value in series [3] is “almost no change in its CD pattern”.
Consider “PK(FK)5P (PKFKFKFKFKFKP) [PFK, proline capped amphiphilic cationic 13-residue peptide]”, for which the ξ zeta potential in series [1] (setting [7]) is −33.52 ± 3.11 mV; in series [1] (setting [5]) it was −33.52 ± 3.11 mV; in series [1] (setting [6]) it was −35.42 ± 4.5 mV. In addition, the ζ zeta potential is on record as 11.6 ± 5 mV in series [1] (setting [8]) and −49.3 ± 2 mV in series [1] (setting [4]). Also, the figures for the Rh in series [2] (setting [7]), in series [2] (setting [5]) and in series [2] (setting [6]) were 9.8 ± 0.23 nm, 9.8 ± 0.23 nm and 52.2 ± 50.63 nm, respectively. Besides, the “Radius (Rh, DLS at 90°)” value in series [2] (setting [8]) is on record as “Non spherical NPs”. Besides, the “Rh*” value in series [2] came out at 11.4 ± 2 nm. Further, the “θ215/θ203 (β-sheet relative to unfolded) as function of pH” value in series [3] (PFK alone or 1:1 w/w with γ-PGA) was “steep increase in θ215/θ203 value at pH˜8”. Further, the “change of CD pattern” value in series [3] was “most pronounced shift to β-sheet structure”.
